Patent publication US20240010735A1 (EISAI R AND D MANAGEMENT, published 2024)

Legend:
Test in all cases: ELISA: SEAP-His proteins (1 nM) captured on anti-6-His antibody, antibody A 10 µg/mL with human IgG 100 µg/mL, HRP anti-mouse IgG, OD450 as % of human EphA4-SEAP-His
[1] = molecular target: T1, human EphA8 extracellular region-SEAP-His protein (human, UniProt P29322 28-542)
T1 construct: extracellular domain; also called Eph receptor extracellular region-SEAP-His protein; not shown: secretory alkaline phosphatase (SEAP); histidine tag
T1 sequence (looked up): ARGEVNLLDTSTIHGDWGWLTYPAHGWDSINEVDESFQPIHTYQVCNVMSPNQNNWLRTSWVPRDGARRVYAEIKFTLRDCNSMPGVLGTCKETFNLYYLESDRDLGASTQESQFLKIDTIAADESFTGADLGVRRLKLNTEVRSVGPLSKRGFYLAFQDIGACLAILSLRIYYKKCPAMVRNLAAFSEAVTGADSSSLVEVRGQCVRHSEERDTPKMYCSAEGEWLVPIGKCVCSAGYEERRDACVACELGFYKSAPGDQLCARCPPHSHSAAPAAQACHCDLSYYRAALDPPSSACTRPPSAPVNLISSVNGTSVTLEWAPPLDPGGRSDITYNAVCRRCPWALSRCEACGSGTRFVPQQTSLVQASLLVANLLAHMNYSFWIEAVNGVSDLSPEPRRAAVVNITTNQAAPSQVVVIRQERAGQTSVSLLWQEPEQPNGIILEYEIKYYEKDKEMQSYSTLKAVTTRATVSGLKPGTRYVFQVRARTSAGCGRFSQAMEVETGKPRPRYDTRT
Experimental: (§1) Rabbit anti-6-His antibodies (Bethel Laboratories) were coated onto the wells of a 96-well plate (Nunc). After incubating at 4° C. overnight, the wells were blocked at room temperature for 1 hour by 1% Block Ace (DS Pharma Biomedical). After washing 3 times with 0.05% Tween 20/PBS (Thermo […]), each Eph receptor of human extracellular region-SEAP-His protein (final concentration 1 nM) was seeded into each well, and incubated at room temperature for 1 hour. After washing 3 times, human IgG solution (100 μg/mL, Mitsubishi Pharma Corporation) and antibody A (10 μg/mL) were supplemented to the wells, and incubated at room temperature for 1 hour. Horseradish peroxidase-labeled donkey anti-mouse IgG antibody (Jackson ImmunoResearch Laboratories) was added, and incubated at room, temperature for 1 hour. After washing 3 times, TMBZ (3,3′,5,5′-tetramethylbenzidine, Sigma) solution was added to the wells, and upon confirmation of modest coloring, an equal amount of quenching solution (1 N H₂SO₄, Wako Pure Chemicals) was added to the wells, and absorbance at 450 nm was read by a microplate reader (PerkinElmer).

[2] = molecular target: T2, human EphB1 extracellular region-SEAP-His protein (human, UniProt P54762 18-540)
T2 construct: extracellular domain; also called Eph receptor extracellular region-SEAP-His protein; not shown: secretory alkaline phosphatase (SEAP); histidine tag
T2 sequence (looked up): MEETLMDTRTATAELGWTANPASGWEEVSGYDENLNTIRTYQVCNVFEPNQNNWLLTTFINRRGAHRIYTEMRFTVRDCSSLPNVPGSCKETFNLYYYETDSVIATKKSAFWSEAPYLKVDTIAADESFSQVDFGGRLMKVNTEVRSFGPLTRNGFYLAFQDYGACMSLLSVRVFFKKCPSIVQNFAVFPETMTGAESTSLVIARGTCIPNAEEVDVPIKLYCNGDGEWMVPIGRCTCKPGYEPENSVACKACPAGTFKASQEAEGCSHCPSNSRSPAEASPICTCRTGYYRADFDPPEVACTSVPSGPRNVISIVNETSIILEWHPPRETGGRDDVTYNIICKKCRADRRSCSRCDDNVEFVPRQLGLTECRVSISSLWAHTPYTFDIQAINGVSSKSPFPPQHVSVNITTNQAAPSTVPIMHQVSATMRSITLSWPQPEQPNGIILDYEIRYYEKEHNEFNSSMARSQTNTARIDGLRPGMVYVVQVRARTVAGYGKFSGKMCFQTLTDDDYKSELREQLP
Experimental: as §1

[3] = molecular target: T3, human EphB6 extracellular region-SEAP-His protein (human, UniProt O15197 32-594)
T3 construct: extracellular domain; also called Eph receptor extracellular region-SEAP-His protein; not shown: secretory alkaline phosphatase (SEAP); histidine tag
T3 sequence (looked up): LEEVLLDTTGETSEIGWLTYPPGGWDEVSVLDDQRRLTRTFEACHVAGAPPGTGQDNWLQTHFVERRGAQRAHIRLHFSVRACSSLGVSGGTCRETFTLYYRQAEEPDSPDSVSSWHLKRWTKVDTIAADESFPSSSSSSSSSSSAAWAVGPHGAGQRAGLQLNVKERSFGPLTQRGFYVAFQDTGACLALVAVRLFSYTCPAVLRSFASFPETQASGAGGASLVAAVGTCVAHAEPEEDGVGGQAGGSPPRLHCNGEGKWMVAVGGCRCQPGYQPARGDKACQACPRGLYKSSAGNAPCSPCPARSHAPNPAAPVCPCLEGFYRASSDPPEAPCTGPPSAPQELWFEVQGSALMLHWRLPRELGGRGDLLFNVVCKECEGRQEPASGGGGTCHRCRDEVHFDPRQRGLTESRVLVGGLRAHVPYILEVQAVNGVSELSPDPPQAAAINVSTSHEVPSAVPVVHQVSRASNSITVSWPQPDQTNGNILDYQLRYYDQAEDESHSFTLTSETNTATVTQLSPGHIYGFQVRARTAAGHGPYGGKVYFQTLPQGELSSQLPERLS
Experimental: as §1

Measured: binding result

B1: mouse anti-EphA4 monoclonal antibody (antibody A) (antibody, mouse IgG1, kappa, V domains shown)
VH: QVQLKQSGPSLVQPSQSLSITCTVSGFSLTRYGVHWVRQSPGKGLEWLGVIWRGGSTDYNAAFMSRLSITKDNSKSQVFFKMNSLQADDTAIYYCAKESLFGVYYDYGYYSMDYWGQGTSVTVSS
VL: DIQMTQSPSSLSASLGERVSLTCRASQEISGYLSWLQQKPDGTIKRLIYAASTLDSGVPKRFSGSRSGSDYSLTISSLESEDFADYYCLQYASYPLTFGAGTKLELKR
notes: purified from hybridoma supernatant
no binding (tested: 10 µg/mL): [1] | [2] | [3]
